B1: 9976-TCR38-2 (TCR)
TCR alpha: AQSVTQLGSHVSVSEGALVLLRCNYSSSVPPYLFWYVQYPNQGLQLLLKYTTGATLVKGINGFEAEFKKSETSFHLTKPSAHMSDAAEYFCAVTEPGGYQKVTFGTGTKLQVIPNIQNPEPAVNIQNPEPAVYQLKDPRSQDSTLCLFTDFDSQINVPKTMESGTFITDKTVLDMKAMDSKSNGAIAWSNQTSFTCQDIFKETNATYPSSDVPCDATLTEKSFETDMNLNFQNLLVIVLRILLLKVAGFNLLMTLRLWSS
TCR beta: GAVVSQHPSRVICKSGTSVKIECRSLDFQATTMFWYRQFPKQSLMLMATSNEGSKATYEQGVEKDKFLINHASLTLSTLTVTSAHPEDSSFYICSATGQHAGANVLTFGAGSRLTVLEDLRNEDLRNVTPPKVSLFEPSKAEIANKQKATLVCLARGFFPDHVELSWWVNGKEVHSGVSTDPQAYKESNYSYCLSSRLRVSATFWHNPRNHFRCQVQFHGLSEEDKWPEGSPKPVTQNISAEAWGRADCGITSASYQQGVLSATILYEILLGKATLYAVLVSTLVVMAMVKRKNS
B2: 9976-TCR38-2 (protein)
chain 1: QSVTQLGSHVSVSEGALVLLRCNYSSSVPPYLFWYVQYPNQGLQLLLKYTTGATLVKGINGFEAEFKKSETSFHLTKPSAHMSDAAEYFCAVTEPGGYQKVTFGTGTKLQVIP
chain 2: AVVSQHPSRVICKSGTSVKIECRSLDFQATTMFWYRQFPKQSLMLMATSNEGSKATYEQGVEKDKFLINHASLTLSTLTVTSAHPEDSSFYICSATGQHAGANVLTFGAGSRLTVL

Key:
[1] = target: KRAS G12V presented by HLA-DRB1*07:01 (human), P01116; test: cell-based or functional assay
[2] = target: KRAS G12V peptide on HLA-DRA*01:01 / HLA-DRB1*07:01 (human); test: NFAT-luciferase; peptide titration in the Jurkat-NFAT and COS-7 system; full-length, on cells; details: chains Valpha:Vbeta

Row | Binder | peptide concentration at which reactivity is still seen (peptide titration, Jurkat-NFAT & COS-7 system) [1] [ng/mL] | lowest peptide concentration with reactivity [2] [ng/mL]
1 | B1 | 1 | 
2 | B2 |  | < 1

Source: US20250216381A1
